Results published in patent publication US20220356216A1.

How the values were obtained:
[1] = target: mRFP1-sspB-Nano (mRFP1 fused to the sspB-Nano protein, his-MBP removed by TEV protease); assay: fluorescence microscopy of RFP-sspB-Nano recruitment to synthetic cells with membrane-bound protein; activation by 488 nm laser
[2] = target: mRFP1-sspB-Nano (mRFP1 fused to the sspB-Nano protein, his-MBP removed by TEV protease); assay: fluorescence microscopy of RFP-sspB-Nano recruitment to synthetic cells with membrane-bound protein; activation by blue laser light
[3] = target: mRFP1-sspB-Nano (mRFP1 fused to the sspB-Nano protein, his-MBP removed by TEV protease); assay: fluorescence microscopy of RFP-sspB-Nano recruitment to synthetic cells with membrane-bound protein; activation by coelenterazine (bioluminescence)

| Substance | fold increase of mRFP1 signal at the membrane against the dark conditions [1] [fold] | fold difference of mRFP1 intensity between dark and light conditions [2] [fold] | fold increase of normalized mRFP1 intensity at the membrane against the dark conditions [3] [fold] |
| --- | --- | --- | --- |
| his-iLID (his-tagged improved light-induced dimer) | 1.5 | – | – |
| his-Gluc-iLID (fusion of N-terminal Gaussia luciferase and C-terminal iLID with a linker peptide and an N-terminal his-tag) | – | > 8 | 2.5 |
